This is an account of results in article PMC8536467 (Molecular cell, 2021).

For orientation: Kd means the concentration at which binding is half-saturated. Read a low Kd as higher affinity.

Where no end group is shown, it is not given here. Me2 = dimethyl (dimethylated lysine)

The test has as its target Human 53BP1-Tudor (residues 1484-1603) (human, UniProt Q12888 1484-1603). Nature of the test: ITC. For orientation: ITC needs no label: the signal is the heat of the interaction.

Chain of Human 53BP1-Tudor (residues 1484-1603) (Q12888 1484-1603): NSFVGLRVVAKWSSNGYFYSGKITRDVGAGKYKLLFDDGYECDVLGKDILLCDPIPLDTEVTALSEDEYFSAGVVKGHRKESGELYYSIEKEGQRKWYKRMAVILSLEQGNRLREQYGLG

B1: p53K370me2 peptide (residues 366-375) (peptide, UniProt P04637 366-375, looked up)
peptide: SSHLK(Me2)SKKGQ
As to B1, binding was put at a Kd of 52 µM.

B2: p53K382me2 peptide (residues 377-386) (peptide, UniProt P04637 377-386, looked up)
peptide: TSRHKK(Me2)LMFK
For B2, the Kd amounted to 8 µM.
